± gives the uncertainty stated by the source.
B1: Tumor protein p73, residues 487 to 549; numbered along this chain, O15350 (parent)
chain: YHADPSLVSFLTGLGCPNCIEYFTSQGLQSIYHLQNLTIEDLGALKIPEQYRMTIWRGLQDLK

Variants of: B1
Assay: abundance fitness (aPCA) (normalised: wild type 0, dead -1); higher = more abundant; growth selection in yeast, the domain comes from the species named
Settings: Homo sapiens

Abundance fitness of substitutions, site by site:
Y1: A 0.003 ± 0.28; C -0.172 ± 0.076; D 0.23 ± 0.23; E 0.01 ± 0.063; F 0.201 ± 0.078; G -0.285 ± 0.051; H -0.075 ± 0.088; I 0.336 ± 0.16; K -0.153 ± 0.073; L 0.075 ± 0.059; M 0.18 ± 0.063; N 0.054 ± 0.13; P 0.161 ± 0.14; Q -0.195 ± 0.093; R -0.175 ± 0.054; S 0.078 ± 0.05; T 0.109 ± 0.13; V 0.173 ± 0.044
H2: A -0.094 ± 0.061; C 0.197 ± 0.096; D -0.073 ± 0.095; E 0.066 ± 0.046; F 0.145 ± 0.11; G -0.096 ± 0.045; I 0.515 ± 0.097; L 0.202 ± 0.044; M 0.301 ± 0.1; N 0.216 ± 0.07; P 0 ± 0.15; Q 0.345 ± 0.058; R 0.148 ± 0.037; S 0.274 ± 0.041; T 0.273 ± 0.053; V -0.004 ± 0.043; W 0.119 ± 0.063; Y -0.031 ± 0.11
A3: C 0.426 ± 0.062; D 0.08 ± 0.17; E 0.197 ± 0.063; F 0.36 ± 0.11; G 0.141 ± 0.038; H 0.101 ± 0.094; I 0.405 ± 0.089; K 0.358 ± 0.042; L 0.311 ± 0.042; M 0.349 ± 0.12; N 0.024 ± 0.16; P 0.361 ± 0.099; Q 0.311 ± 0.045; R 0.326 ± 0.028; S 0.268 ± 0.054; V 0.137 ± 0.051; W 0.209 ± 0.037; Y 0.201 ± 0.072
D4: N -0.15 ± 0.092; W 0.181 ± 0.18
P5: A 0.11 ± 0.063; C 0.167 ± 0.11; D 0.201 ± 0.07; E 0.24 ± 0.049; F 0.046 ± 0.21; G 0.134 ± 0.038; H 0.003 ± 0.064; I 0.209 ± 0.057; K 0.238 ± 0.036; L 0.073 ± 0.035; M 0.334 ± 0.038; N 0.225 ± 0.084; Q -0.005 ± 0.055; R 0.085 ± 0.033; T 0.211 ± 0.04; V 0.159 ± 0.037; W 0.021 ± 0.043
S6: A 0.041 ± 0.052; C 0.036 ± 0.067; D 0.017 ± 0.14; E 0.126 ± 0.048; F -0.095 ± 0.072; G 0.136 ± 0.027; H -0.077 ± 0.089; K -0.07 ± 0.066; L -0.15 ± 0.056; M -0.031 ± 0.06; N -0.076 ± 0.21; Q 0.064 ± 0.066; R 0.013 ± 0.035; T -0.052 ± 0.04; V -0.027 ± 0.043; W -0.212 ± 0.061; Y -0.197 ± 0.16
L7: A -0.257 ± 0.046; C -0.4 ± 0.062; E -0.512 ± 0.095; F -0.266 ± 0.073; G -0.936 ± 0.071; H -0.969 ± 0.24; K -0.984 ± 0.16; M -0.023 ± 0.04; P -0.782 ± 0.11; Q -1.01 ± 0.12; R -1.01 ± 0.074; S -0.831 ± 0.06; T -0.157 ± 0.053; V -0.049 ± 0.033; W -0.847 ± 0.08
V8: A 0.106 ± 0.061; C 0.006 ± 0.058; D 0.143 ± 0.15; E 0.222 ± 0.043; F -0.045 ± 0.079; G 0.228 ± 0.032; H -0.024 ± 0.079; I -0.053 ± 0.05; K 0.235 ± 0.04; L 0.137 ± 0.034; M 0.137 ± 0.04; N -0.052 ± 0.056; P 0 ± 0.064; Q 0.037 ± 0.046; R 0.132 ± 0.033; S 0.005 ± 0.042; T 0.117 ± 0.046; W 0.083 ± 0.036; Y -0.016 ± 0.086
S9: A -0.101 ± 0.043; C -0.312 ± 0.059; D -0.114 ± 0.098; E -0.019 ± 0.04; F -0.194 ± 0.056; G 0.103 ± 0.028; H -0.345 ± 0.16; I -0.347 ± 0.13; K -0.017 ± 0.042; L -0.131 ± 0.039; M -0.207 ± 0.054; N 0.086 ± 0.074; P -0.134 ± 0.054; Q 0.095 ± 0.04; R 0.048 ± 0.023; T -0.052 ± 0.049; V -0.373 ± 0.039; W -0.411 ± 0.048; Y -0.237 ± 0.04
F10: A -0.535 ± 0.069; C -0.588 ± 0.14; D -1.06 ± 0.16; E -1.02 ± 0.17; H -0.971 ± 0.18; K -1.32 ± 0.31; L -0.307 ± 0.038; M -0.424 ± 0.053; N -0.804 ± 0.35; P -0.748 ± 0.24; Q -0.865 ± 0.21; R -0.962 ± 0.079; S -0.867 ± 0.083; T -0.823 ± 0.11; W -0.296 ± 0.037; Y -0.294 ± 0.074
L11: A -0.599 ± 0.07; C -0.13 ± 0.049; D -1.14 ± 0.22; E -0.825 ± 0.1; F -0.031 ± 0.14; G -0.923 ± 0.075; H -0.806 ± 0.34; I 0.039 ± 0.071; K -0.681 ± 0.089; M -0.115 ± 0.043; N -1.12 ± 0.37; P -1.17 ± 0.25; Q -0.053 ± 0.11; S -1 ± 0.1; T -0.858 ± 0.13; W -0.914 ± 0.15; Y -0.518 ± 0.1
T12: C -0.386 ± 0.065; D 0.236 ± 0.099; E 0.114 ± 0.044; F -0.092 ± 0.078; G 0.1 ± 0.039; H 0.01 ± 0.061; I -0.032 ± 0.04; K 0.087 ± 0.051; L -0.146 ± 0.034; M 0.021 ± 0.045; N 0.117 ± 0.083; P -1.1 ± 0.15; Q 0.031 ± 0.045; R 0.058 ± 0.028; S -0.05 ± 0.042; V -0.061 ± 0.028; W -0.216 ± 0.035
G13: A -0.021 ± 0.035; C -0.142 ± 0.077; E 0.047 ± 0.052; F -0.172 ± 0.056; H 0.11 ± 0.058; I -0.138 ± 0.071; L -0.124 ± 0.035; M -0.075 ± 0.048; N 0.216 ± 0.22; P -0.183 ± 0.064; Q 0.024 ± 0.047; R 0.008 ± 0.031; S 0.034 ± 0.038; T -0.012 ± 0.047; V -0.223 ± 0.054; W -0.315 ± 0.051; Y -0.185 ± 0.093
L14: A -0.193 ± 0.042; D -0.923 ± 0.18; E -0.53 ± 0.071; F -0.493 ± 0.058; G -0.989 ± 0.079; H -0.231 ± 0.082; I 0.009 ± 0.051; K -0.174 ± 0.1; M -0.136 ± 0.057; P -0.949 ± 0.18; Q -0.298 ± 0.077; R -0.353 ± 0.038; S -0.407 ± 0.063; T -0.307 ± 0.066; V 0.024 ± 0.031; W -0.542 ± 0.073; Y -0.315 ± 0.095
G15: A -0.124 ± 0.043; C -0.226 ± 0.063; F -0.508 ± 0.097; H -0.26 ± 0.13; I -0.937 ± 0.27; K -0.062 ± 0.058; L -0.616 ± 0.065; M -0.463 ± 0.059; N -0.002 ± 0.053; Q -0.124 ± 0.037; R -0.153 ± 0.034; S -0.17 ± 0.036; T -0.549 ± 0.055; V -0.606 ± 0.059; W -0.854 ± 0.099; Y -0.462 ± 0.084
C16: A -0.176 ± 0.066; D -0.923 ± 0.23; E -0.8 ± 0.2; F -0.144 ± 0.084; G -0.754 ± 0.091; H -0.047 ± 0.054; I 0.146 ± 0.12; K -0.322 ± 0.062; M 0.002 ± 0.065; P -1.01 ± 0.27; Q -0.504 ± 0.092; R -0.407 ± 0.041; S -0.389 ± 0.059; T -0.163 ± 0.05; W -0.773 ± 0.072; Y -0.078 ± 0.069
P17: A -0.081 ± 0.043; C -0.08 ± 0.051; D -0.044 ± 0.051; E 0.047 ± 0.039; F 0.036 ± 0.061; H -0.031 ± 0.1; I -0.122 ± 0.087; K 0.075 ± 0.04; L 0.023 ± 0.034; M -0.007 ± 0.05; N -0.154 ± 0.14; Q 0.106 ± 0.053; R -0.024 ± 0.03; S 0.015 ± 0.031; T 0.028 ± 0.048; V 0.007 ± 0.035; W -0.14 ± 0.039; Y 0.017 ± 0.063
N18: A 0.042 ± 0.038; C -0.125 ± 0.095; D 0.049 ± 0.067; E 0.033 ± 0.042; G 0.061 ± 0.039; H 0.04 ± 0.082; I 0.005 ± 0.079; K -0.163 ± 0.045; L -0.139 ± 0.035; M -0.163 ± 0.047; P -0.288 ± 0.053; Q -0.03 ± 0.037; S -0.12 ± 0.042; T -0.084 ± 0.042; V -0.055 ± 0.043; Y -0.167 ± 0.062
C19: A -0.033 ± 0.042; D -0.699 ± 0.18; E -0.236 ± 0.058; F 0.031 ± 0.13; G -0.559 ± 0.049; H -0.399 ± 0.077; I -0.055 ± 0.09; K -0.726 ± 0.088; L 0.047 ± 0.035; M 0.048 ± 0.036; N -0.511 ± 0.13; P -0.97 ± 0.12; Q 0.028 ± 0.056; R -0.941 ± 0.06; V 0.052 ± 0.036; W -0.454 ± 0.065; Y -0.233 ± 0.1
I20: A -0.061 ± 0.042; C -0.074 ± 0.038; E -0.057 ± 0.047; F -0.257 ± 0.052; G -0.269 ± 0.036; H -0.069 ± 0.044; K -0.185 ± 0.05; L 0.038 ± 0.031; M 0.003 ± 0.038; N -0.282 ± 0.044; P -0.626 ± 0.056; Q -0.082 ± 0.046; R -0.111 ± 0.033; S -0.049 ± 0.03; T -0.003 ± 0.036; V 0.009 ± 0.029; W -0.36 ± 0.05; Y -0.1 ± 0.038
E21: A -0.051 ± 0.04; C -0.182 ± 0.07; D 0.012 ± 0.065; G 0.034 ± 0.035; H -0.089 ± 0.061; I -0.138 ± 0.052

Source: the Human Domainome abundance scans (Beltran et al. 2025)
